Results reported in US10376545B2, “Methods for producing hormone secreting cells in a subject” (ViaCyte, Inc., priority 2013, dated 2019).
“Also recorded” adds a separate entry of the source.

Columns and labels:
Type in all cases: cell-based, human
PEC derived from hESC = assay: Flow cytometry analysis of PEC derived from hESC (CHGA, NKX6.1, PDX1 sub-populations)
Experimental: (§1) So, Activin levels less than about 25 ng/mL are acceptable for maintaining cell mass and yield. Applicant then performed flow cytometry analysis on these cell cultures to determine whether Activin at low levels during stages 3 and 4 had any effect on cell aggregate composition; see Table 14. […] Advantageously, the PDX1 only and Triple Negative sub-populations are reduced as compared to the control, particularly when Activin is used in stages 3 and 4.
To determine the cell composition of the PEC population with the combination of Activin, Heregulin and Wnt during stage 3, flow cytometry was performed after stage 4 and the PEC cellular composition is shown in Table 14. […] Data from flow cytometry supports and is consistent with data from QPCR that the combination of the three factors (AHW) in general delayed or suppressed differentiation of cells committed to the endocrine lineage (CHGA+) in PEC without affecting the production of the non-endocrine (CHGA−) sub-population. The delayed expression of these genes in vitro is consistent with their on-set (or delay) in in vivo mammalian pancreatic development, whereby NGN3 expression in endocrine differentiation occurs after the on-set of PDX1 and NKX6.1 expression in the non-endocrine (CHGA−) sub-population. Additionally, there was no compromise in the PEC mass and yield. […]
Undifferentiated human ESC were expanded and differentiated substantially as described above in Table 17 Protocol #1 for stages 1-4 and in Schulz et al. (2012) supra, except that during the three (3) days of stage 3, 4 different conditions were compared: (i) 0 noggin (“no noggin”) for all 3 days; (ii) 1 day of Noggin at 50 ng/mL and 2 days with no additional Noggin; (iii) 2 days of Noggin at 50 ng/mL and 1 day with no additional noggin; and (iv) 3 days of Noggin at 50 ng/mL. After stage 3, each of these conditions (i) through (iv) then received the standard stage 4 differentiation media cocktail according to Table 8 and Table 17, but without additional Noggin. […] Moreover, with each additional day of noggin treatment, fewer non-endocrine multipotent pancreatic progenitor sub-populations were produced (compare 90.6% with no noggin to 64.6% with 3 days of noggin treatment).

[1] = test system: NGN3, NKX2.2, NKX6.1, PDX1 expression; assay: Quantitative PCR of relative gene expression in PEC cultures (NGN3, NKX2.2, NKX6.1, PDX1)
Experimental: The progression of pluripotent cells to various multipotent and/or differentiated cells can be monitored by determining the relative expression of genes, or gene markers, characteristic of a specific cell, as compared to the expression of a second or control gene, e.g., housekeeping genes. In some processes, the expression of certain markers is determined by detecting the presence or absence of the marker. Alternatively, the expression of certain markers can be determined by measuring the level at which the marker is present in the cells of the cell culture or cell population. In such processes, the measurement of marker expression can be qualitative or quantitative. One method of quantitating the expression of markers that are produced by marker genes is through the use of quantitative PCR (Q-PCR). Methods of performing Q-PCR are well known in the art. Other methods which are known in the art can also be used to quantitate marker gene expression. For example, the expression of a marker gene product can be detected by using antibodies specific for the marker gene product of interest.
(§2) Various growth factors were explored for their ability to suppress genes such as NGN3 during stages 3 and 4. One candidate growth factor was Activin which has diverse functions in stem cell expansion and differentiation. For example, at low levels (e.g. 10 ng/mL), Activin helps maintain pluripotent stem cell pluripotency and cell proliferation. At higher levels (e.g. 100 ng/mL) Activin acts as a differentiation growth factor responsible for definitive endoderm production at stage 1 (see e.g., Table 8). To test its effect on repressing cells committed to the endocrine lineage (CHGA+) during PEC formation, Applicant first tested Activin at a mid-level concentration of about 50 ng/mL with standard adherent differentiation.
Quantitative PCR analysis was performed to determine the relative levels of gene expression at days 8, 10 and 12 of differentiation with the above combinations of Activin and Heregulin (FIG. 13). […]

[2] = test system: INS, GCG, SST, GHRL, PDX1, NKX6.1, NGN3, ID1 expression; assay: Nanostring mRNA analysis of endocrine cell cultures
[3] = test system: hES-derived cell aggregates; assay: Cell aggregate size / cell mass in suspension culture (imaging)
Experimental: Preliminary studies were performed using Heregulin and FGF. In certain of these studies, Rho-kinase inhibitor, Y-27632, was included. […] An increase in cell aggregate size is advantageous in that it results in higher cell mass for later implantation and testing for function in animals.
as §2, §1
Pluripotent stem cells were differentiated using the standard protocol according to Table 8, except during stage 3, Activin was included at 10 ng/mL or 20 ng/mL in combination with Heregulin at 2 ng/mL or 10 ng/mL; and during stage 4, Activin was reduced to 5 ng/mL with Heregulin at 1 ng/mL for two days then at 10 ng/mL thereafter. […] Increasing Activin to 20 ng/mL with Heregulin remaining the same at 2 ng/mL exacerbated the cell loss (compare FIGS. 12B and 12C, top panel). […]

[4] = N50-1day: Noggin 50 ng/mL for 1 day of stage 3, after stage 4
[5] = N50-2day: Noggin 50 ng/mL for 2 days of stage 3, after stage 4
[6] = N50-3d: Noggin 50 ng/mL for 3 days of stage 3, after stage 4
[7] = A5 Stg3&4: 5 ng/mL Activin at stages 3 and 4
[8] = A5 Stg3: 5 ng/mL Activin at stage 3
[9] = A10 Stg3: 10 ng/mL Activin at stage 3

B1: noggin: protein that inactivates TGFβ superfamily signaling proteins such as BMP4 (protein, UniProt Q13253 28-232, looked up)
Noggin: QHYLHIRPAPSDNLPLVDLIEHPDPIFDPKEKDLNETLLRSLLGGHYDPGFMATSPPEDRPGGGGGAAGGAEDLAELDQLLRQRPSGAMPSEIKGLEFSEGLAQGKKQRLSKKLRRKLQMWLWSQTFCPVLYAWNDLGSRFWPRYVKVGSCFSKRSCSVPEGMVCKPSKSVHLTVLRWRCQRRGGQRCGWIPIQYPIISECKCSC
For B1, the “non-endocrine multipotent pancreatic progenitor sub-population” value (PEC derived from hESC; 3 days of Noggin at 50 ng/mL at stage 3, after stage 4) was 64.6%, the “CHGA+ (Endocrine)” value (PEC derived from hESC; [4]) was 11.9% and the “CHGA−/NKX6.1+ (Non-endocrine)” value (PEC derived from hESC; [4]) was 82%. The “CHGA+ (Endocrine)” value (PEC derived from hESC; [5]) was 25.1%, the “CHGA−/NKX6.1+ (Non-endocrine)” value (PEC derived from hESC; [5]) was 71.9% and the “CHGA+ (Endocrine)” value (PEC derived from hESC; [6]) was 32.5%. For the same molecule, the “CHGA−/NKX6.1+ (Non-endocrine)” value (PEC derived from hESC; [6]) was 64.6%, the “production of cells committed to the endocrine lineage (CHGA+)” value (PEC derived from hESC; each additional day of noggin treatment at stage 3) was “increased levels of production of cells committed to the endocrine lineage (CHGA+)” and the “endocrine lineage marker expression (NKX2.2, INS)” value ([1]; each additional day of noggin treatment, after stage 4 (day 12)) was “increased levels of endocrine lineage marker expression”.

B2: BMP: BMP4, member of the bone morphogenetic protein family (protein, UniProt P12644 293-408, looked up)
Bone morphogenetic protein 4: SPKHHSQRARKKNKNCRRHSLYVDFSDVGWNDWIVAPPGYQAFYCHGDCPFPLADHLNSTNHAIVQTLVNSVNSSIPKACCVPTELSAISMLYLDEYDKVVLKNYQEMVVEGCGCR
With B2 the “Insulin and PDX1 expression” value ([2]; 10 ng/mL at stages 6 and 7 or stage 7 alone) was “simultaneously increase Insulin and PDX1 expression”, the pancreatic-lineage gene expression ([2]; agent at days 30-35 during stage 7, analyzed at d35) was “increases expression of INS, PDX1 and IDI; also recorded: decreased GHRL expression” and the ID1 gene expression ([2]; stages 6 and 7) was “up-regulate inhibitor-of-differentiation (ID) gene expression”.

B3: Activin: TGFβ superfamily growth factor (protein, UniProt P08476 311-426, looked up)
Inhibin beta A chain: GLECDGKVNICCKKQFFVSFKDIGWNDWIIAPSGYHANYCEGECPSHIAGTSGSSLSFHSTVINHYRMRGHSPFANLKSCCVPTKLRPMSMLYYDDGQNIIKKDIQNMIVEECGCS
modifications: Inhibin beta A chain
notes: TGFβ superfamily growth factor
For B3, the “CHGA+ (Endocrine)” value (PEC derived from hESC; [7]) was 54.9%, the “CHGA−/NKX6.1+/PDX1+ (Non-endocrine)” value (PEC derived from hESC; [7]) was 38% and the “CHGA−/NKX6.1−/PDX1+ (PDX ONLY)” value (PEC derived from hESC; [7]) was 4.1%. The “CHGA−/NKX6.1−/PDX1− (Residual or Triple Negative)” value (PEC derived from hESC; [7]) was 2%, the “CHGA+ (Endocrine)” value (PEC derived from hESC; [8]) was 54.7% and the “CHGA−/NKX6.1+/PDX1+ (Non-endocrine)” value (PEC derived from hESC; [8]) was 31.7%. For the same molecule, the “CHGA−/NKX6.1−/PDX1+ (PDX ONLY)” value (PEC derived from hESC; [8]) was 6.7%, the “CHGA−/NKX6.1−/PDX1− (Residual or Triple Negative)” value (PEC derived from hESC; [8]) was 5.4% and the “CHGA+ (Endocrine)” value (PEC derived from hESC; [9]) was 56.2%. The “CHGA−/NKX6.1+/PDX1+ (Non-endocrine)” value (PEC derived from hESC; [9]) was 33.7%, the “CHGA−/NKX6.1−/PDX1+ (PDX ONLY)” value (PEC derived from hESC; [9]) was 4.6% and the “CHGA−/NKX6.1−/PDX1− (Residual or Triple Negative)” value (PEC derived from hESC; [9]) was 3.9%. The “cell mass and yield of aggregates” value ([3]; 5 ng/mL and 10 ng/mL at stages 3 and 4) was “capable of maintaining cell mass and yield”, the “cell mass of aggregates” value ([3]; 50 ng/mL during stage 3, cell aggregate suspension culture) was “the overall cell mass drastically decreased” and the “Activin levels acceptable for maintaining cell mass and yield” value ([3]; stages 3 and 4, suspension culture) was “less than 25 ng/mL”. For the same molecule, the “NGN3 and NKX2.2 expression” value ([1]; 10 and 20 ng/mL at stage 3 with Heregulin, days 8, 10 and 12) was “capable of repressing NGN3 and NKX2.2” and the “NGN3, PDX1 and NKX6.1 gene expression in PEC” value ([1]; about 50 ng/mL, standard adherent differentiation) was “capable of suppressing NGN3 expression without suppressing PDX1 and NKX6.1 gene expression”.
